The target of assay [1] is MBP-Vpu fusion protein (His8-MBP-linker-full-length HIV-1 Vpu, Q36C) (HIV-1). The assay can be described thus: SEC.
Assay [2] has the same target. The assay is described as follows: SEC. The source holds these as a separate data set.
Assay [3] deals with MBP-Vpu fusion protein spin-labeled at residue Q36C (HIV-1). The assay is described as follows: DEER.
The target is the same in assay [4]. The assay can be described thus: DEER. The source holds these as a separate data set.
Assay [5] shares this target. The assay can be described thus: DEER. This is another data set of the same source.

Read-outs that look alike come from different tables or passages of the source.

Turning to “MBP-Vpu fusion protein (His8-MBP-linker-full-length HIV-1 Vpu, Q36C)”, the stoichiometry N in assay [1] and in assay [2] was 5 in each case.
On to “MBP-Vpu fusion protein spin-labeled at residue Q36C”, for which the DEER modulation depth was 0.56 in assay [3] and 0.24 in assay [5]. The figures for the stoichiometry N in assay [4] and in assay [5] were 5 and over 3, respectively.

The values are drawn from PMC10257199.
